Laboratory results reported in PMC11417369, “DNA sequence and chromatin differentiate sequence-specific transcription factor binding in the human malaria parasite Plasmodium falciparum”.

T1: SIP2 D1 (Plasmodium falciparum, UniProt C6KSN9 177-235)
T1 sequence: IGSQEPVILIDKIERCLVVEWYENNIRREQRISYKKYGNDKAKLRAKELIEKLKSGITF

T2: HDP1 homeodomain-like (Plasmodium falciparum, UniProt Q8IKH4 2990-3078)
T2 sequence: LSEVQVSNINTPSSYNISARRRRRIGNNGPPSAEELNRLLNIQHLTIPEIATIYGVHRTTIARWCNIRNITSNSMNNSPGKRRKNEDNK

T3: AP2-G D1 (Plasmodium falciparum, UniProt Q8I5I9 2123-2245)
T3 sequence: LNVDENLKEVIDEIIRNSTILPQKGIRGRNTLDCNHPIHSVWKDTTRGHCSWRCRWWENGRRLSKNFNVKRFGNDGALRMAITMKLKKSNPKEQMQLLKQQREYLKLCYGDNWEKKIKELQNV

B1: GTGCAC_negctrl_site321 (dsDNA)
DNA 1: ACAAAAAATTAATGAGAAATGGAATAATAAGTTATA
DNA 2: TATAACTTATTATTCCATTTCTCATTAATTTTTTGT
B2: GTGCAC_negctrl_site633 (dsDNA)
DNA 1: AAAAAAATAAAAAATATATAAATAATTAATACATGT
DNA 2: ACATGTATTAATTATTTATATATTTTTTATTTTTTT
B3: XGTACX_site3301 (dsDNA)
DNA 1: TTTTCTTTTTGTTCGTGTACACACATGAAATTTATA
DNA 2: TATAAATTTCATGTGTGTACACGAACAAAAAGAAAA
B4: GTGCAC_negctrl_site472 (dsDNA)
DNA 1: TATTTAAAATAATAACAAAATTAACATAAATATATA
DNA 2: TATATATTTATGTTAATTTTGTTATTATTTTAAATA
B5: XGTACX_site1704 (dsDNA)
DNA 1: CTCGTATATATAATACGTACATATTATATATATATA
DNA 2: TATATATATATAATATGTACGTATTATATATACGAG
B6: XGTACX_site3746 (dsDNA)
DNA 1: ATATAAAATATTACGTGTACACATAAATAAAAATAA
DNA 2: TTATTTTTATTTATGTGTACACGTAATATTTTATAT
B7: XGTACX_site820 (dsDNA)
DNA 1: ACAATTGAAGAAATACGTACATAAAGAAAAACTAGT
DNA 2: ACTAGTTTTTCTTTATGTACGTATTTCTTCAATTGT
B8: GTGCAC_negctrl_site227 (dsDNA)
DNA 1: ATAGAATAAATTTTGTCATTTATTCCTTATATATAA
DNA 2: TTATATATAAGGAATAAATGACAAAATTTATTCTAT
B9: GTGCAC_negctrl_site528 (dsDNA)
DNA 1: AAACATCTTTACAACGTCCCTCCTTTTTTATGTACC
DNA 2: GGTACATAAAAAAGGAGGGACGTTGTAAAGATGTTT
B10: GTGCAC_negctrl_site641 (dsDNA)
DNA 1: TTTTCTTGACCTATTATTCTTCTCATAGTATAATAT
DNA 2: ATATTATACTATGAGAAGAATAATAGGTCAAGAAAA
B11: GTGCAC_site10459 (dsDNA)
DNA 1: TTATAAATGTGCGTAGTGCATAAACAAAAAAAAAAT
DNA 2: ATTTTTTTTTTGTTTATGCACTACGCACATTTATAA
B12: GTGCAC_negctrl_site667 (dsDNA)
DNA 1: GTAAGAATATTTATAAATGTATAATTTGTATTATTT
DNA 2: AAATAATACAAATTATACATTTATAAATATTCTTAC
B13: GTGCAC_negctrl_site715 (dsDNA)
DNA 1: TTTTTTCTTTTATGTGAAATGTAATATTGTTATATA
DNA 2: TATATAACAATATTACATTTCACATAAAAGAAAAAA
B14: XGTACX_site718 (dsDNA)
DNA 1: GTATTAATTTTAAGGTGTACGCAAAAAATTTAATTT
DNA 2: AAATTAAATTTTTTGCGTACACCTTAAAATTAATAC
B15: XGTACX_site2835 (dsDNA)
DNA 1: GGGGGGATGAGATATTGTACTTTTTAGGAAAGTGTA
DNA 2: TACACTTTCCTAAAAAGTACAATATCTCATCCCCCC
B16: XGTACX_site5429 (dsDNA)
DNA 1: ATGGACATCTATTGTTGTACACATTTTCCCATAACA
DNA 2: TGTTATGGGAAAATGTGTACAACAATAGATGTCCAT
B17: GTGCAC_negctrl_site723 (dsDNA)
DNA 1: AGCATTTTAAAAGAAAAAAAAAAAAAAAAAAAAATA
DNA 2: TATTTTTTTTTTTTTTTTTTTTTCTTTTAAAATGCT

Experiments:
Test in all cases: gcPBM; about 25 ug protein; PBS, 1% milk, 0.2 mg/ml BSA, salmon testes DNA, 0.03% Triton X-100
[1] = biological target: T1, SIP2 D1; conditions: tags: N-terminal GST (pGEX-4T-1), kept; label: surface-attached array probe
[2] = biological target: AP2-I D3 (Plasmodium falciparum, UniProt Q8IJW6 910-1027); conditions: tags: N-terminal GST (pGEX-4T-1), kept; label: surface-attached array probe
[3] = biological target: T2, HDP1 homeodomain-like; conditions: tags: N-terminal GST (pGEX-4T-1), kept; chain copies: 2; label: surface-attached array probe
[4] = biological target: T3, AP2-G D1; conditions: tags: N-terminal GST (pGEX-4T-1), kept; label: surface-attached array probe

Binder	binding signal [1]	binding signal [2]	binding signal [3]	binding signal [4]
B1	6.83 ln median PBM intensity, better of two orientations	7.2 ln median PBM intensity, better of two orientations	6.32 ln median PBM intensity, better of two orientations	–
B2	–	7.14 ln median PBM intensity, better of two orientations	6.32 ln median PBM intensity, better of two orientations	–
B3	–	–	–	13 ln median PBM intensity, better of two orientations
B4	–	7.1 ln median PBM intensity, better of two orientations	6.24 ln median PBM intensity, better of two orientations	–
B5	–	–	–	12.9 ln median PBM intensity, better of two orientations
B6	–	–	–	13 ln median PBM intensity, better of two orientations
B7	–	–	–	12.9 ln median PBM intensity, better of two orientations
B8	6.84 ln median PBM intensity, better of two orientations	7.14 ln median PBM intensity, better of two orientations	6.37 ln median PBM intensity, better of two orientations	–
B9	–	7.28 ln median PBM intensity, better of two orientations	6.32 ln median PBM intensity, better of two orientations	–
B10	–	7.08 ln median PBM intensity, better of two orientations	6.18 ln median PBM intensity, better of two orientations	–
B11	8.72 ln median PBM intensity, better of two orientations	11.5 ln median PBM intensity, better of two orientations	10.2 ln median PBM intensity, better of two orientations	–
B12	6.8 ln median PBM intensity, better of two orientations	7.22 ln median PBM intensity, better of two orientations	6.29 ln median PBM intensity, better of two orientations	–
B13	–	7.2 ln median PBM intensity, better of two orientations	6.24 ln median PBM intensity, better of two orientations	–
B14	–	–	–	13.1 ln median PBM intensity, better of two orientations
B15	–	–	–	13.2 ln median PBM intensity, better of two orientations
B16	–	–	–	13.1 ln median PBM intensity, better of two orientations
B17	6.8 ln median PBM intensity, better of two orientations	7.05 ln median PBM intensity, better of two orientations	5.84 ln median PBM intensity, better of two orientations	–
